# ± gives the uncertainty stated by the source.
# Test: protein stability index of a GFP-peptide fusion (yeast GPS) (PSI 1-4); higher = more stable; sorted into four equal gates, so the index is relative within each strain
# Method in brief: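 Mid-log yeast cultures in leucine-free medium, carrying a pooled plasmid library, were sorted into four equal gates by their GFP/Cherry fluorescence ratio. Each plasmid expressed Cherry along with GFP fused upstream of a tiled 17-residue yeast protein peptide. Plasmids recovered from each gate were PCR-amplified and Illumina-sequenced, with reads assigned to strains by barcodes. The protein stability index was obtained by summing each gate's read frequency weighted by its gate number.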
Sequence,protein stability index (doa10∆),protein stability index (pdr5∆),protein stability index (san1∆),protein stability index (ubr1∆)
GKMNNEVSTSTSMTGDA [SWI3],3.49 ± 0.076,3.3 ± 0.069,3.2 ± 0.054,3.15 ± 0.053
KGPRFRKLTSQEINDRL [PRE8],3.09 ± 0.098,3.19 ± 0.11,3.06 ± 0.18,3.58 ± 0.093
KALQSIGQLIGEVMKEL [RPT4],3.35 ± 0.092,3.17 ± 0.15,3.39 ± 0.095,3.36 ± 0.058
EKLKQFSWISVVNDLVG [SIR3],1.61 ± 0.052,1.99 ± 0.058,1.53 ± 0.08,1.55 ± 0.034
VLLVEKYGAEYDLVDNK [NAS6],1.9 ± 0.22,–,3 ± 0.22,3 ± 0.19
VFMLDTKRLGTPESVKP [RGR1],2.55 ± 0.075,2.64 ± 0.091,2.54 ± 0.11,2.8 ± 0.086
TLSLPDSQDYILSINAI [SMC1],2.85 ± 0.041,2.95 ± 0.05,2.9 ± 0.04,2.87 ± 0.044
NLNDKFGIYILTQGING [MED1],1.54 ± 0.04,1.47 ± 0.032,1.6 ± 0.096,1.43 ± 0.031
RIQLMNDFTTKLINIKK [MED1],2.89 ± 0.081,2.81 ± 0.099,2.84 ± 0.11,2.97 ± 0.086
EVAQLGSLACDTADEAK [RPB4],3.49 ± 0.15,3.28 ± 0.13,3.28 ± 0.17,2.73 ± 0.11
NPTKSKEILDNILPFLW [ECM29],2.26 ± 0.085,2.97 ± 0.1,2.8 ± 0.23,2.61 ± 0.085
PSTGFKFSLPFEQKGSQ [YLR335W/NUP2],2.99 ± 0.11,2.94 ± 0.088,3.07 ± 0.087,2.96 ± 0.096
LGVEDITLIDSASLHLN [RET1],2.03 ± 0.063,1.61 ± 0.043,1.8 ± 0.1,1.8 ± 0.046
IEDVTPVPSDSTRKKGG [RPS14B],2.99 ± 0.039,3.15 ± 0.045,2.96 ± 0.051,3.03 ± 0.04
KLNQKYDIVKFLTVSKL [GRR1],1.76 ± 0.037,1.99 ± 0.03,2.06 ± 0.052,2.04 ± 0.026
MGKSAVIFVERATPATL [SRB2],2.36 ± 0.14,1.31 ± 0.076,1.66 ± 0.2,1.31 ± 0.29
ALDFRNVSIVANYIKER [SMC4],1.51 ± 0.069,2.04 ± 0.058,1.51 ± 0.11,1.82 ± 0.058
ANNDINSLLSNFNDIPP [YDL088C/ASM4],2.56 ± 0.097,2.87 ± 0.18,2.67 ± 0.27,3.13 ± 0.14
NKNQLLKRNRIRNARSI [POP1],2.93 ± 0.071,3.1 ± 0.071,2.84 ± 0.059,3 ± 0.055
EGLSAQIAFDLVSSASQ [RPN2],2.6 ± 0.068,3.05 ± 0.075,2.67 ± 0.1,2.62 ± 0.039
EYIFEAHEIIKREEKAM [CDC53],1.77 ± 0.039,2.39 ± 0.088,2.54 ± 0.086,2.28 ± 0.043
NQNTLKEISARRYKLLT [POP1],2.13 ± 0.049,2.35 ± 0.045,2.1 ± 0.067,2.65 ± 0.045
RVHDQPLIWQLLQSSII [POP3],1.43 ± 0.062,1.78 ± 0.07,1.66 ± 0.11,1.7 ± 0.028
ILKDLIYRGVLNDENSD [SMC1],1.81 ± 0.059,2.18 ± 0.076,1.92 ± 0.13,2.21 ± 0.066
DTKPFLNKDSTNEFVGS [NUT1],3.09 ± 0.064,2.79 ± 0.054,2.44 ± 0.062,3.04 ± 0.039
NLQGDLQAIQEKLNKTD [ITC1],–,3.33 ± 0.21,3.33 ± 0.17,3.2 ± 0.16
MDSIIPAGVKLDDLQVI [PGD1],2.5 ± 0.093,3.05 ± 0.091,2.57 ± 0.061,2.52 ± 0.056

Sequence,protein stability index (doa10∆),protein stability index (pdr5∆),protein stability index (san1∆),protein stability index (ubr1∆)
SESVGAFLSFLAYRNYW [YJL039C/NUP192],1.69 ± 0.073,1.97 ± 0.11,1.72 ± 0.12,1.84 ± 0.084
LQKQILTVENKLQFETD [SMC1],2.6 ± 0.069,2.37 ± 0.052,2.55 ± 0.047,2.9 ± 0.046
KNKENNTFTWNHSLQHQ [RPN4],2.37 ± 0.083,2.34 ± 0.096,2.25 ± 0.067,1.95 ± 0.046
VKNTNANPVVATDPVAA [SWP82],2 ± 0.1,2.91 ± 0.1,2.5 ± 0.091,2.47 ± 0.061
RRILPKPSRTSRQVQKR [RPS7A],–,3.44 ± 0.15,2.74 ± 0.1,3.35 ± 0.14
NQTIKEAKDAIIELENI [YIL149C/MLP2],3.02 ± 0.061,3.2 ± 0.07,3.06 ± 0.052,2.89 ± 0.065
IREKVAKQALDLYHFAL [SNF2],2.52 ± 0.092,2.64 ± 0.098,2.62 ± 0.094,2.54 ± 0.056
NSIESKNLSLQTGTKPV [COR1],2.72 ± 0.06,2.84 ± 0.053,2.95 ± 0.045,2.85 ± 0.042
TEPDKPAFSFNSSVGNK [YJL041W/NSP1],3.14 ± 0.053,3.3 ± 0.04,3.09 ± 0.033,3.242 ± 0.029
GHEELKRRIEEEQEKIN [ISW2],3.36 ± 0.082,3.47 ± 0.086,3.13 ± 0.062,3.35 ± 0.055
YINVSRGTDIDRINYTE [SRB5],–,–,–,3.02 ± 0.22
AYPGKLICPQYGTENKD [CSL4],1.89 ± 0.073,1.93 ± 0.068,1.72 ± 0.15,1.9 ± 0.078
AISTGNWSLKRFKMERA [RET1],1.94 ± 0.097,1.93 ± 0.11,2.44 ± 0.11,1.68 ± 0.077
IKVWTIKGQCLATLLGH [ASC1],2.22 ± 0.085,1.59 ± 0.099,1.69 ± 0.1,1.39 ± 0.057
AKEVKVLYHTSGAITFV [PRP8],2.12 ± 0.055,2.5 ± 0.064,2.58 ± 0.055,2.72 ± 0.068
MGRVRTKTVKRASKALI [RPS17A],3.05 ± 0.12,1.87 ± 0.086,3.1 ± 0.069,1.52 ± 0.06
LRYYKNIWLNNKIINWE [NUT1],3.56 ± 0.18,2.67 ± 0.087,2.2 ± 0.22,3.39 ± 0.16
SANVELFKRDCNQMENL [YCS4],3.38 ± 0.1,3.35 ± 0.09,3.4 ± 0.062,3.35 ± 0.074
NANEISANTNNTCTIST [SWP82],2.61 ± 0.041,2.61 ± 0.045,2.9 ± 0.04,2.62 ± 0.031
FKYVEDRFPLKLREPVA [ITC1],2.42 ± 0.094,–,1.81 ± 0.26,2.73 ± 0.093
GNSERPSAVAGFINQKN [YIL149C/MLP2],3.31 ± 0.1,3.29 ± 0.12,2.93 ± 0.097,3.03 ± 0.051
HLSHPGTNKDMILKLVC [ECM29],1.52 ± 0.049,1.45 ± 0.035,1.32 ± 0.09,1.91 ± 0.045
LNQIATLKIHLKKFLQE [IRR1],2.17 ± 0.18,1.91 ± 0.22,–,–
LFYFDSSFRPCPLSQQF [BRR2],2.47 ± 0.072,1.89 ± 0.051,2.68 ± 0.061,2.41 ± 0.033
KIAVLNNDKREIQEELE [SMC1],3.23 ± 0.067,3.37 ± 0.056,3.32 ± 0.039,3.25 ± 0.047
ELEMIGGTNEDDFTDAI [YCS4],–,3.2 ± 0.18,3.39 ± 0.069,3.7 ± 0.19
IDMLPMLLGTDLCSLKP [DIS3],2.74 ± 0.066,2.71 ± 0.065,2.69 ± 0.07,2.45 ± 0.057

# From the supplement of paper PMC9732359
